Measured values: PMC4176187

Target: 40S ribosomal subunits purified from rabbit reticulocyte lysate (rabbit) (UniProt G1U0Q2)
Assay: protein transfer assay

Substance | percent of the protein transferred from scAlu RNA to 40S [%]
human recombinant SRP9/14 protein heterodimer, wild type (from UniProt P49458 1-86; P37108 1-136) (complex) | 41
human recombinant SRP9/14A5 (basic pentapeptide K96-K100 of SRP14 mutated) (from UniProt P49458 1-86; P37108 1-136) (complex) | 16
